From publication PMC5434536

Target: TIP60, endogenous in C4-2 cells (human (endogenous in C4-2)) (UniProt Q92993)
Test: co-IP; endogenous proteins, C4-2 lysates; TIP60 immunoprecipitated with anti-TIP60; cells +/- 10 nM MB for 24 h; also cells transfected with siCtrl or siING3 and treated with MB; blot for AR

Sequence of TIP60, endogenous in C4-2 cells (human (endogenous in C4-2)) (Q92993 whole entry): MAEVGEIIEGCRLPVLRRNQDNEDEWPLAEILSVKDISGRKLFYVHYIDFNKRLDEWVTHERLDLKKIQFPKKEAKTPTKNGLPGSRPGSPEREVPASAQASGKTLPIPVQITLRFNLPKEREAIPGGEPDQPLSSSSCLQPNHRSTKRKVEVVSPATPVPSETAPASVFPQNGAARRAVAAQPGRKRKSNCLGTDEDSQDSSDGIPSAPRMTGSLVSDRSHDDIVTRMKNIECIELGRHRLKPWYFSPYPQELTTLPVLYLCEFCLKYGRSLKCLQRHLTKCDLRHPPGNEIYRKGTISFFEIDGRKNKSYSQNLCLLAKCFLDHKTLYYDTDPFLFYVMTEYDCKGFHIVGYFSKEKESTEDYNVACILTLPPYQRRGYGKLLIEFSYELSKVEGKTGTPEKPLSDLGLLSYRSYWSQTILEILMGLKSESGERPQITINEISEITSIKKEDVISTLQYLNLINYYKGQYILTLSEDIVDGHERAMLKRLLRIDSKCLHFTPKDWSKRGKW
Sequence of androgen receptor (AR), endogenous in C4-2 cells (P10275 whole entry): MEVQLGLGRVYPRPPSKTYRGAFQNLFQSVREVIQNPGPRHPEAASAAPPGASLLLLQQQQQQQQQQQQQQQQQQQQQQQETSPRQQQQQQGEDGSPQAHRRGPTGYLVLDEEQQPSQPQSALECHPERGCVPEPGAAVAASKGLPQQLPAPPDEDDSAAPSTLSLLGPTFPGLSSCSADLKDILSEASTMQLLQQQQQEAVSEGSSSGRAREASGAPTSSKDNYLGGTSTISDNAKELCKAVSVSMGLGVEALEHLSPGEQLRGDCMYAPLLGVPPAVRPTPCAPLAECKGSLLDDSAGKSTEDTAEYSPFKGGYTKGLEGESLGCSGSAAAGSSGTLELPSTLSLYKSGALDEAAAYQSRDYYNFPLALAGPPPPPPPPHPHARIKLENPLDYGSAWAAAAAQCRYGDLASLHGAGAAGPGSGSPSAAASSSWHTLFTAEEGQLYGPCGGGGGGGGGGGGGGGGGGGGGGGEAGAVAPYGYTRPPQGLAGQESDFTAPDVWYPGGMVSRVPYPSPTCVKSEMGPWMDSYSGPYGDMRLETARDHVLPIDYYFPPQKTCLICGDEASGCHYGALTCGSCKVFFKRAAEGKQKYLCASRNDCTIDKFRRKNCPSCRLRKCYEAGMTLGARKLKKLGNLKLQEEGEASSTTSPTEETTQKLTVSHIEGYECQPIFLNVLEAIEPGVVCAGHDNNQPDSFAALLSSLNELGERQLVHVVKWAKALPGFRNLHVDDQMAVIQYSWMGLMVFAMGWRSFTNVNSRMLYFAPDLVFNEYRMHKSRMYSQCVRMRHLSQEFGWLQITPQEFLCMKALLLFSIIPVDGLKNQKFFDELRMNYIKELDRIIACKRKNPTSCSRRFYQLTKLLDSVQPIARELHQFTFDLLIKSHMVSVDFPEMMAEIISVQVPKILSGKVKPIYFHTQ

fold reduction of the AR-TIP60 association with siING3 against siCtrl: 3 fold
Substance: androgen receptor (AR), endogenous in C4-2 cells (from UniProt P10275 1-920)
